Experimental data published in patent US20190167756A1 (CITY OF HOPE, published 2019).

Target: T1, CFP-AR-YFP (full length AR with cyan fluorescent protein and yellow fluorescent protein fused to either end) (UniProt P10275 1-920)
T1 construct: Reporter stably expressed in GT1-7 CARY cells; GT1-7 CARY lysates may also contain endogenous mouse AR; also called CARY; C-AR-Y; not shown: cyan fluorescent protein (CFP); yellow fluorescent protein (YFP)
T1 sequence (looked up): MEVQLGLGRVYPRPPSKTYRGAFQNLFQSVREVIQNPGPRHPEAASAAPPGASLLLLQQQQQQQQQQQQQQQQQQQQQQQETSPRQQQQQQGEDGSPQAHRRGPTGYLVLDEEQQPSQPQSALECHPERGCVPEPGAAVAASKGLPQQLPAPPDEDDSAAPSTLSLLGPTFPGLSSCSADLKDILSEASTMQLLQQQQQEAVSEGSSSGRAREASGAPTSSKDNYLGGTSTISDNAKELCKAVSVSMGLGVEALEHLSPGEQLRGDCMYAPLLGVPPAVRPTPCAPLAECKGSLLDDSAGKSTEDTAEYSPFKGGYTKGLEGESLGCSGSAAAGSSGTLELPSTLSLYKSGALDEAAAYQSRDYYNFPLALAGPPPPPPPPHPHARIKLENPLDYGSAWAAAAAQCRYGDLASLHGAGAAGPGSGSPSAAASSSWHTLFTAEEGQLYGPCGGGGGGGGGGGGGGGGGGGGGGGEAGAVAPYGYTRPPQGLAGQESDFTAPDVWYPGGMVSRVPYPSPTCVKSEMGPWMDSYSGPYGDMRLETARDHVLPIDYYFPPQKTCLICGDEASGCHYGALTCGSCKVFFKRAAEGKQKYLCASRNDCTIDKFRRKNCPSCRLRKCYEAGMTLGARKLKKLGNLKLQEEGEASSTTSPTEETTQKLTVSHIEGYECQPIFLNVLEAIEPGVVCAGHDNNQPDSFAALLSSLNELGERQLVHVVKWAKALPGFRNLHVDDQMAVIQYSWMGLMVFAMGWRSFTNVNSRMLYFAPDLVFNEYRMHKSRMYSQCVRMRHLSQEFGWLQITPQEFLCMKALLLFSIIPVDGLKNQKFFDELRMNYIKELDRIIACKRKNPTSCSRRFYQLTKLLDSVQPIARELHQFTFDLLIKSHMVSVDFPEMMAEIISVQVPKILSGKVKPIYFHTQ
Experiment: co-immunoprecipitation from GT1-7 CARY cell lysates, Western blot

binding result: no binding
B1: FOXM1 (other, mouse, UniProt O08696 1-760, looked up)
chain: MRTSPRRPLILKRRRLPLPVQNAPSETSEEEAKRSPAQPEPAPAQASQEVAESSSCKFPAGIKIINHPTTPNTQVVAIPSNADIQSIITALTAKGKESGTSGPNRFILISSGGPSSHPSQPQAHSSRDSKRAEVITETLGPKPAAKGVPVPKPPGAPPRQRQESYAGGEAAGCTLDNSLTNIQWLGKMSSDGLGPCSVKQELEEKENCHLEQNRVKVEEPSGVSTSWQDSVSERPPYSYMAMIQFAINSTERKRMTLKDIYTWIEDHFPYFKHIAKPGWKNSIRHNLSLHDMFVRETSANGKVSFWTIHPSANRHLTLDQVFKPLEPGSPQSPEHLESQQKRPNPELHRNVTIKTEIPLGARRKMKPLLPRVSSYLEPIQFPVNQSLVLQPSVKVPFRLAASLMSSELARHSKRVRIAPKVLLSSEGIAPLPATEPPKEEKPLLGGEGLLPLLPIQSIKEEEMQPEEDIAHLERPIKVESPPLEEWPSPCASLKEELSNSWEDSSCSPTPKPKKSYCGLKSPTRCVSEMLVTKRREKREVSRSRRKQHLQPPCLDEPDLFFPEDSSTFRPAVELLAESSEPAPHLSCPQEEGGPFKTPIKETLPVSSTPSKSVLSRDPESWRLTPPAKVGGLDFSPVRTPQGAFGLLPDSLGLMELNTTPLKSGPLFDSPRELLNSEPFDLASDPFGSPPPPHVEGPKPGSPELQIPSLSANRSLTEGLVLDTMNDSLSKILLDISFPGLEEDPLGPDNINWSQFIPELR
notes: also called Forkhead Box Protein M1
